# Where no end group is shown, it is not given here. The star is where a group is joined. FITC = O=C1OC2(c3ccc(O)cc3Oc3cc(O)ccc32)c2ccc(NC(=S)*)cc21; βAla = NCCC(=O)O
# B1: His-tag–GB1–MLL TAD (wild type) (peptide)
# chain: GNILPSDIMDFVLKNTPSMQALGESPESY
# notes: MLL TAD, residues 2842-2869 of human MLL; Tyr residue attached at the C-terminus for concentration determination by UV absorption; Used in ITC and immobilised in SPR; also called wild-type MLL TAD; WT; source: E. coli BL21(DE3), purified (Ni-NTA); not shown: His6, N-terminal, kept
# B2: MLL TAD peptide K2855R without His-tag–GB1 (peptide)
# chain: GNILPSDIMDFVLRNTPSMQALGESPESY
# notes: MLL TAD, residues 2842-2869 of human MLL, with the substitution; Tyr residue attached at the C-terminus for concentration determination by UV absorption; One of the four mutants used without His-tag–GB1 in ITC as well as in CD; source: E. coli BL21(DE3), purified (Ni-NTA, thrombin digestion on the column, anion exchange); not shown: His6, N-terminal, cleaved
# B3: His-tag–GB1–MLL TAD T2857L (peptide)
# chain: GNILPSDIMDFVLKNLPSMQALGESPESY
# notes: MLL TAD, residues 2842-2869 of human MLL, with the substitution; Tyr residue attached at the C-terminus for concentration determination by UV absorption; source: E. coli BL21(DE3), purified (Ni-NTA); not shown: His6, N-terminal, kept
# B4: MLL TAD peptide D2851L without His-tag–GB1 (peptide)
# chain: GNILPSDIMLFVLKNTPSMQALGESPESY
# notes: as for B2
# B5: His-tag–GB1–MLL TAD T2857K (peptide)
# chain: GNILPSDIMDFVLKNKPSMQALGESPESY
# notes: as for B3
# B6: MLL TAD peptide T2857I without His-tag–GB1 (peptide)
# chain: GNILPSDIMDFVLKNIPSMQALGESPESY
# notes: as for B2
# B7: His-tag–GB1–MLL TAD T2857F (peptide)
# chain: GNILPSDIMDFVLKNFPSMQALGESPESY
# notes: as for B3
# B8: His-tag–GB1–MLL TAD T2857Y (peptide)
# chain: GNILPSDIMDFVLKNYPSMQALGESPESY
# notes: as for B3
# B9: His-tag–GB1–MLL TAD K2855R/T2857W (peptide)
# chain: GNILPSDIMDFVLRNWPSMQALGESPESY
# notes: MLL TAD, residues 2842-2869 of human MLL, with the substitutions; Tyr residue attached at the C-terminus for concentration determination by UV absorption; also called K2855R/T2857W double mutant; source: E. coli BL21(DE3), purified (Ni-NTA); not shown: His6, N-terminal, kept
# B10: His-tag–GB1–MLL TAD T2857A (peptide)
# chain: GNILPSDIMDFVLKNAPSMQALGESPESY
# notes: as for B3
# B11: His-tag–GB1–MLL TAD T2857W (peptide)
# chain: GNILPSDIMDFVLKNWPSMQALGESPESY
# notes: MLL TAD, residues 2842-2869 of human MLL, with the substitution; Tyr residue attached at the C-terminus for concentration determination by UV absorption; Used in ITC; also called designed T2857W peptide; T2857W mutant of the MLL TAD peptide; source: E. coli BL21(DE3), purified (Ni-NTA); not shown: His6, N-terminal, kept
# B12: MLL TAD peptide I2849L without His-tag–GB1 (peptide)
# chain: GNILPSDLMDFVLKNTPSMQALGESPESY
# notes: as for B2
# B13: His-tag–GB1–MLL TAD K2855R/T2857L (peptide)
# chain: GNILPSDIMDFVLRNLPSMQALGESPESY
# notes: MLL TAD, residues 2842-2869 of human MLL, with the substitutions; Tyr residue attached at the C-terminus for concentration determination by UV absorption; also called K2855R/T2857L double mutant; source: E. coli BL21(DE3), purified (Ni-NTA); not shown: His6, N-terminal, kept
# B14: His-tag–GB1–MLL TAD T2857R (peptide)
# chain: GNILPSDIMDFVLKNRPSMQALGESPESY
# notes: as for B3
# B15: FITC-labeled c-Myb TAD peptide (peptide)
# peptide: {FITC-βAla}-GYNDEDPEKEKRIKELELLLMSTENELKGQQAL
# notes: first residue of the printed peptide; as far as I recall not a residue of c-Myb at this position; c-Myb TAD; 33 residues as printed; also called FITC-Myb; source: synthetic peptide, bought: Biologica Co
# B16: wild-type MLL TAD peptide used as inhibitor in fluorescence polarization (peptide)
# chain: GNILPSDIMDFVLKNTPSMQALGESPESY
# notes: MLL TAD, residues 2842-2869 of human MLL; Tyr residue attached at the C-terminus for concentration determination by UV absorption; also called wild-type peptide; WT; source: E. coli BL21(DE3), purified (Ni-NTA)
# B17: designed T2857W peptide used as inhibitor in fluorescence polarization (peptide)
# chain: GNILPSDIMDFVLKNWPSMQALGESPESY
# notes: MLL TAD, residues 2842-2869 of human MLL, with the substitution; Tyr residue attached at the C-terminus for concentration determination by UV absorption; also called designed peptide; source: E. coli BL21(DE3), purified (Ni-NTA)
# Molecular target: T1, KIX domain of CREB-binding protein (residues 586–672 of mouse CBP) (mouse, UniProt P45481 586-672)
# T1 construct: KIX domain, residues 586-672 of mouse CBP; 6xHis-tag and thrombin cleavage site at the N-terminus; source: E. coli BL21(DE3)pLysS, purified (Ni-NTA, gel filtration on Superdex 200 pg)
# T1 sequence (P45481 586-672): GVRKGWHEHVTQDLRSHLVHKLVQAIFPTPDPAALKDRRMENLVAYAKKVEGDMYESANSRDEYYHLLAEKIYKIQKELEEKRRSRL
# Assay: ITC; 600 μM MLL solution titrated into the cell containing 45 µM KIX; 30 °C; 20 mM Tris–acetate pH 7.0, 50 mM NaCl; one-site binding model
# Details: both partners purified
Binder,Kd [nM],dH [kcal/mol],stoichiometry N
B1,2020,-13.1,1.02
B2,1500,-13.8,0.94
B3,1900,-10.5,1.05
B4,4800,-8.8,1.02
B5,4900,-11.7,1.02
B6,2400,-10,1.04
B7,2100,-11.1,1.07
B8,2280,-12.3,1.02
B9,1040,-12.2,1.04
B10,2620,-11.8,1.03
B11,950,-12.8,1.02
B12,2800,-12.3,0.947
B13,1720,-9.5,1.09
B14,3000,-12.6,1.03

# Molecular target: T1, KIX domain of CREB-binding protein …
# Assay: fluorescence polarisation; 0–100 μM KIX titrated into 25 nM FITC-labeled peptide; 30 °C; 20 mM sodium phosphate pH 7.0, 100 mM NaCl, 0.005% Tween 20
# Details: both partners purified
row,Binder,binding result
1,B15,binds

# Molecular target: T1, KIX domain of CREB-binding protein …
# Assay: SPR; competition: mixture of KIX (5 μM) and inhibitor (0.27–200 μM) injected over immobilised His-tag–GB1–MLL TAD; 30 °C; 20 mM sodium phosphate pH 7.0, 100 mM NaCl, 0.05% Tween 20
# Details: both partners purified
row,Binder,IC50 [µM]
1,B1,10.4
2,B11,5.67

# Molecular target: T1, KIX domain of CREB-binding protein …
# Assay: SPR; His-tag–GB1–MLL TAD immobilised on CM5 by amine coupling (77.9 RU); KIX 0.04–30 μM injected; 30 °C; 20 mM sodium phosphate pH 7.0, 100 mM NaCl, 0.05% Tween 20; equilibrium analysis
# Details: both partners purified
row,Binder,Kd [µM]
1,B1,4.94

# Molecular target: T1, KIX domain of CREB-binding protein …
# Assay: fluorescence polarisation; competition: inhibitor (0–200 μM) titrated into a mixture of KIX (2 μM) and FITC-MLL (25 nM); 30 °C; 20 mM sodium phosphate pH 7.0, 100 mM NaCl, 0.005% Tween 20
# Details: both partners purified
row,Binder,IC50 [µM]
1,B16,7.1
2,B17,3.48

# Molecular target: T1, KIX domain of CREB-binding protein …
# Assay: fluorescence polarisation; competition: inhibitor (0–200 μM) titrated into a mixture of KIX (2 μM) and FITC-Myb (25 nM); 30 °C; 20 mM sodium phosphate pH 7.0, 100 mM NaCl, 0.005% Tween 20
# Details: both partners purified
row,Binder,IC50 [µM]
1,B16,36
2,B17,16
